Measured values from US20100209956.

Key:
[1] = target: pro-HGF (single-chain hepatocyte growth factor), P14210
[2] = target: T1, Lys-plasminogen, P00747
T1 chain: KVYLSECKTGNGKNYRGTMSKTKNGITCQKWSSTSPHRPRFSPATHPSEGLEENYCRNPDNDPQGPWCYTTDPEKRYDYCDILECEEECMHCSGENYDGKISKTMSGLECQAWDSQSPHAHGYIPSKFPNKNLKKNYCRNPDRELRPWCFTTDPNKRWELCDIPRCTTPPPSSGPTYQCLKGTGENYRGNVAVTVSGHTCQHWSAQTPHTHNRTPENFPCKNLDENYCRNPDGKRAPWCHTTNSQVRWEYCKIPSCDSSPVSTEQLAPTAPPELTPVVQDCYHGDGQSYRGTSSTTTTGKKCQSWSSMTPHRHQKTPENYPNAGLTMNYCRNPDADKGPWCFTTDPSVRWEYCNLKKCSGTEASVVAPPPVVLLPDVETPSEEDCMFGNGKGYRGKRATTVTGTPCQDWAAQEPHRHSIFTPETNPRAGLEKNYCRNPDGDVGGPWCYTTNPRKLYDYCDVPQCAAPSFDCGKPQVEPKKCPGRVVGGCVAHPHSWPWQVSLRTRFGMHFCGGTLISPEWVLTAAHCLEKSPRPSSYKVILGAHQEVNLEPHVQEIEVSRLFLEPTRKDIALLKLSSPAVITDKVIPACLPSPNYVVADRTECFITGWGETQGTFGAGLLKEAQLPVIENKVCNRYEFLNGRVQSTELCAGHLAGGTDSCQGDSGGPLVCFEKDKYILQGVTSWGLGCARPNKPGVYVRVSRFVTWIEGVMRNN

Sequence of pro-HGF (single-chain hepatocyte growth factor), P14210 (P14210 32-728): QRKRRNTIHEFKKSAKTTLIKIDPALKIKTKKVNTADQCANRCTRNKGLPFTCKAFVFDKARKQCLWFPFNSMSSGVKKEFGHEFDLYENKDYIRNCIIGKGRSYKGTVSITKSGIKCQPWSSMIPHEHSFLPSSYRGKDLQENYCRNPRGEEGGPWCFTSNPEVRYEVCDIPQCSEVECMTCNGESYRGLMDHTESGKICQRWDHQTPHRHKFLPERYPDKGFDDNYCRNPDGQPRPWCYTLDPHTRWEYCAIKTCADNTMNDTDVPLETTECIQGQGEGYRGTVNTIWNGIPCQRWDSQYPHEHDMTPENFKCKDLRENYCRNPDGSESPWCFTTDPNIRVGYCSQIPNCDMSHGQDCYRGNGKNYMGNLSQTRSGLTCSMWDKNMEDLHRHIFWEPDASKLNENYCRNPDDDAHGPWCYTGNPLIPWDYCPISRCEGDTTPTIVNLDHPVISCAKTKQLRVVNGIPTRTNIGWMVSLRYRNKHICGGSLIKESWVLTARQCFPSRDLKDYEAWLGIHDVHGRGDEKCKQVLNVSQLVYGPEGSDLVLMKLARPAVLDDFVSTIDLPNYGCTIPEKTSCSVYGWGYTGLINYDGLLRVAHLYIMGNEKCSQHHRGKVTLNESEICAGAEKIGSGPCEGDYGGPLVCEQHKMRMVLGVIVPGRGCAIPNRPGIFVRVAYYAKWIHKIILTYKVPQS

B1: soluble form of hepsin encompassing the entire extracellular domain (Arg45-Leu417) and a C-terminal His8 tag (protein)
chain 1: RSDQEPLYPVQVSSADARLMVFDKTEGTWRLLCSSRSNARVAGLSCEEMGFLRALTHSELDVRTAGANGTSGFFCVDEGRLPHTQRLLEVISVCDCPRGRFLAAICQDCGRRKLPVDR
chain 2: not shown
[1]
  enzyme concentration achieving complete conversion of 125I-labelled pro-HGF into two-chain HGF (4 h, 37° C., SDS-PAGE): both enzymes achieving complete conversion of pro-HGF at a concentration of 4-13 nM

B2: HGFA (hepatocyte growth factor activator) comprising residues Val373-Arg407 (peptide)
chain: VQLSPDLLATLPEPASPGRQACGRRHKKRTFLRPR
[1]
  enzyme concentration achieving complete conversion of 125I-labelled pro-HGF into two-chain HGF (4 h, 37° C., SDS-PAGE): both enzymes achieving complete conversion of pro-HGF at a concentration of 4-13 nM

B3: tissue-type plasminogen activator (t-PA) (protein)
chain: SYQVICRDEKTQMIYQQHQSWLRPVLRSNRVEYCWCNSGRAQCHSVPVKSCSEPRCFNGGTCQQALYFSDFVCQCPEGFAGKCCEIDTRATCYEDQGISYRGTWSTAESGAECTNWNSSALAQKPYSGRRPDAIRLGLGNHNYCRNPDRDSKPWCYVFKAGKYSSEFCSTPACSEGNSDCYFGNGSAYRGTHSLTESGASCLPWNSMILIGKVYTAQNPSAQALGLGKHNYCRNPDGDAKPWCHVLKNRRLTWEYCDVPSCSTCGLRQYSQPQFRIKGGLFADIASHPWQAAIFAKHRRSPGERFLCGGILISSCWILSAAHCFQERFPPHHLTVILGRTYRVVPGEEEQKFEVEKYIVHKEFDDDTYDNDIALLQLKSDSSRCAQESSVVRTVCLPPADLQLPDWTECELSGYGKHEALSPFYSERLKEAHVRLYPSSRCTSQHLLNRTVTDNMLCAGDTRSGGPQANLHDACQGDSGGPLVCLNDGRMTLVGIISWGLGCGQKDVPGVYTKVTNYLDWIRDNMRP
[2]
  percent of plasminogen zymogen cleaved after 0.5 h (40 nM t-PA, SDS-PAGE): t-PA efficiently processed plasminogen with about 50% of zymogen already cleaved after 0.5 h
